Experimental data as given in patent US20140120128A1.

Experiments:
Assay in all cases: cell-based or functional assay
[1] = target: T1, human TLR9 expressed on HEK293 cells (human) (UniProt Q9NR96)
T1 sequence: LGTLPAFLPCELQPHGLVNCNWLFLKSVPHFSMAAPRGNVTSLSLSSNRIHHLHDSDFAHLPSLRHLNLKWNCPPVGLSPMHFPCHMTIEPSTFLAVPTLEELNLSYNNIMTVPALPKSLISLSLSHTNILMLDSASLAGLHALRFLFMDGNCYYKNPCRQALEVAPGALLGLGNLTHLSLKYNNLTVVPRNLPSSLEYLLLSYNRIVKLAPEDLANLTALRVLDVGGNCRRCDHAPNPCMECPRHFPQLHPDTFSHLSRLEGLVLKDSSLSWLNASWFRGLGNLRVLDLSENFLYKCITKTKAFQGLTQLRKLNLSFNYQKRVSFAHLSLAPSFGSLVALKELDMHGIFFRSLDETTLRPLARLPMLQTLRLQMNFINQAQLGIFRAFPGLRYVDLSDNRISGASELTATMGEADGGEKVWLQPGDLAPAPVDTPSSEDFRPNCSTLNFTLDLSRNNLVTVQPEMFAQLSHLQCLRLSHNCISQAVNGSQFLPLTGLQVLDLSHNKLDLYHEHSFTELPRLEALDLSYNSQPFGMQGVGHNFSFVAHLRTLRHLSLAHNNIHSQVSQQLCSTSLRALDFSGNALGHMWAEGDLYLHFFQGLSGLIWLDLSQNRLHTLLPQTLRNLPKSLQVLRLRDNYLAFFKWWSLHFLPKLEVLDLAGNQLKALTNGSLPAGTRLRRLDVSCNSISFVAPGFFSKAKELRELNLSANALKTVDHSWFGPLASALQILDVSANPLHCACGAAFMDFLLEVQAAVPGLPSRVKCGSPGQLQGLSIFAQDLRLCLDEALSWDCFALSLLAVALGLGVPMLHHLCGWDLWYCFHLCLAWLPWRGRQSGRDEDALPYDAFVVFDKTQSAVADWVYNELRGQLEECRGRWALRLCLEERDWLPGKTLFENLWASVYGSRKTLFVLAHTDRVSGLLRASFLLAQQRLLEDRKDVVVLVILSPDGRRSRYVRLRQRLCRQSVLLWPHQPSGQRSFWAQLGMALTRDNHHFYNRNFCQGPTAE

[2] = target: human TLR3 expressed on HEK293 cells (human) (UniProt O15455)
[3] = target: human TLR7 expressed on HEK293 cells (human) (UniProt Q9NYK1)
human TLR7 expressed on HEK293 cells (human), sequence (Q9NYK1 27-1049): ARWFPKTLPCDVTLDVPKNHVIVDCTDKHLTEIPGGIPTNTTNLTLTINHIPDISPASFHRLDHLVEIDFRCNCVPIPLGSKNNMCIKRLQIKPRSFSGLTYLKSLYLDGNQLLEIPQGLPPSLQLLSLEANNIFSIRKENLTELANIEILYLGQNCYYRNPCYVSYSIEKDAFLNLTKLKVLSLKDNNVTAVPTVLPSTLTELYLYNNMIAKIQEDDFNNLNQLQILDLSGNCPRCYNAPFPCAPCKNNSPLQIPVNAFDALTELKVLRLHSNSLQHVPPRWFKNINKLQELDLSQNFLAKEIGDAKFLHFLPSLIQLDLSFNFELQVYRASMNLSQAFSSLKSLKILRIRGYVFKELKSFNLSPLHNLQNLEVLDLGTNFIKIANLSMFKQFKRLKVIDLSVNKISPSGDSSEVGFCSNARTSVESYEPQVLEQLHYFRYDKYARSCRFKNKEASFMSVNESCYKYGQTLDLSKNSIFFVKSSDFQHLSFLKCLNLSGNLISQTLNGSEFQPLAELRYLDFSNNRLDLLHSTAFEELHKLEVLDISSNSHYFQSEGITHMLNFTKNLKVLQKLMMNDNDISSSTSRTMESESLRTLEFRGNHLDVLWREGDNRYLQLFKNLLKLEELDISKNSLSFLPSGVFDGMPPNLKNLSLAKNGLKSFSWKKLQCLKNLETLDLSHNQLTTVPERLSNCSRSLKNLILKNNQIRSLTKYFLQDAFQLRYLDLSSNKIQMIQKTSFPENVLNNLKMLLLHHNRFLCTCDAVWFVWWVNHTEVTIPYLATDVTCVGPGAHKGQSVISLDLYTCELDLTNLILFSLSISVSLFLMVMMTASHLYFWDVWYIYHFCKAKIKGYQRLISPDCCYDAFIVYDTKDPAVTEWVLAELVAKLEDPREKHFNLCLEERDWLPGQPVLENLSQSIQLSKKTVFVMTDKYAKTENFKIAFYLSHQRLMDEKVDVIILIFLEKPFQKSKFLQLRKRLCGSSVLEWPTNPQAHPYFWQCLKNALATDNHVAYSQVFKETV

[4] = target: human TLR5 expressed on HEK293 cells (human) (UniProt O60602)
human TLR5 expressed on HEK293 cells (human), sequence (O60602 21-858): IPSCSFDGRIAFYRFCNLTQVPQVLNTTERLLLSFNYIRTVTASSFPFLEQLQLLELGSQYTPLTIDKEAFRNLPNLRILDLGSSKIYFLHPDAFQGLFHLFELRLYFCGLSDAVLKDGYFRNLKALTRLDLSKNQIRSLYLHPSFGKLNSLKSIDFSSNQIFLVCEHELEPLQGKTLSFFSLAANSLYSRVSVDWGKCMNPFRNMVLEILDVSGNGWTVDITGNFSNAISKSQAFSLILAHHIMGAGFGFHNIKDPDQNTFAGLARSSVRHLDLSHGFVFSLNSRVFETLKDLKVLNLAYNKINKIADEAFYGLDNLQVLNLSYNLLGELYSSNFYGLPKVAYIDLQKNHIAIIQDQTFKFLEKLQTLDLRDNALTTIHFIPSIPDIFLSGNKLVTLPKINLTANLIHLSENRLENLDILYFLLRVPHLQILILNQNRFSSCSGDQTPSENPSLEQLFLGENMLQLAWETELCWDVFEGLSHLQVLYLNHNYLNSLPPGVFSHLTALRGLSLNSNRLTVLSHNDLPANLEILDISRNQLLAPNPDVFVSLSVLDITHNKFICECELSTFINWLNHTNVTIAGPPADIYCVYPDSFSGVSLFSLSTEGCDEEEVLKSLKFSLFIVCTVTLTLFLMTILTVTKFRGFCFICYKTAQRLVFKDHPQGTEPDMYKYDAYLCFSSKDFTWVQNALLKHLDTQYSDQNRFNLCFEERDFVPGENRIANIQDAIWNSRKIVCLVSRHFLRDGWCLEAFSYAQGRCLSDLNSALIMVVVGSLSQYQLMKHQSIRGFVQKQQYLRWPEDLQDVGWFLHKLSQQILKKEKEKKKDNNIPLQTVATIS

[5] = target: T2, human TLR8 expressed on HEK293 cells (human) (UniProt Q9NR97)
T2 sequence: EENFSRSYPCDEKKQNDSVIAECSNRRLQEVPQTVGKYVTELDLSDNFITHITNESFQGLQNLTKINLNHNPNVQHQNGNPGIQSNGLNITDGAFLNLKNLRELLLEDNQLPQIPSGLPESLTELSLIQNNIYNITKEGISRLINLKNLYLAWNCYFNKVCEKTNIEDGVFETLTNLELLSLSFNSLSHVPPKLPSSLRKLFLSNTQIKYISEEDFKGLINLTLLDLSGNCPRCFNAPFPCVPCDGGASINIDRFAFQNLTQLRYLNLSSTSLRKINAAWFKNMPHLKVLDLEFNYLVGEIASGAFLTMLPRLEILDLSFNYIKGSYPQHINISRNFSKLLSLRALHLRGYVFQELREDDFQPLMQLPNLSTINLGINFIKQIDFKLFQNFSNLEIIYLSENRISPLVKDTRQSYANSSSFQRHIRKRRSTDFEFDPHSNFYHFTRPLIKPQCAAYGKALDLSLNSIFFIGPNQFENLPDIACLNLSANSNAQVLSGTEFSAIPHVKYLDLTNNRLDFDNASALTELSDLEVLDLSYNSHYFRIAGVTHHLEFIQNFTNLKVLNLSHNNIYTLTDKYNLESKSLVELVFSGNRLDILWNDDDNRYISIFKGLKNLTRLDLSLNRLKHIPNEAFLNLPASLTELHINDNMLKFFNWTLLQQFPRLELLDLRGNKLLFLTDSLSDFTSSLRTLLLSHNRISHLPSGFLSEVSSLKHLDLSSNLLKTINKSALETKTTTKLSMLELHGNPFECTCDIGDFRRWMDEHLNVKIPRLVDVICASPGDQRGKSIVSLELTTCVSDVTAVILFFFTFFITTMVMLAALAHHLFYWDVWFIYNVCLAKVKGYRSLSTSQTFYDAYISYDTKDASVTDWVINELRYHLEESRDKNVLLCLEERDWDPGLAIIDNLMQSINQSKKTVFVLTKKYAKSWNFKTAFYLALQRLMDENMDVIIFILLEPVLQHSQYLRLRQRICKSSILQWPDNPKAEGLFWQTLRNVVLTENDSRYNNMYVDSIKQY

[6] = target: human TLR4 (MD2-CD14) expressed on HEK293 cells (human) (UniProt O00206)
human TLR4 (MD2-CD14) expressed on HEK293 cells (human), sequence (O00206 24-839 limits assumed, chain 1 of 3): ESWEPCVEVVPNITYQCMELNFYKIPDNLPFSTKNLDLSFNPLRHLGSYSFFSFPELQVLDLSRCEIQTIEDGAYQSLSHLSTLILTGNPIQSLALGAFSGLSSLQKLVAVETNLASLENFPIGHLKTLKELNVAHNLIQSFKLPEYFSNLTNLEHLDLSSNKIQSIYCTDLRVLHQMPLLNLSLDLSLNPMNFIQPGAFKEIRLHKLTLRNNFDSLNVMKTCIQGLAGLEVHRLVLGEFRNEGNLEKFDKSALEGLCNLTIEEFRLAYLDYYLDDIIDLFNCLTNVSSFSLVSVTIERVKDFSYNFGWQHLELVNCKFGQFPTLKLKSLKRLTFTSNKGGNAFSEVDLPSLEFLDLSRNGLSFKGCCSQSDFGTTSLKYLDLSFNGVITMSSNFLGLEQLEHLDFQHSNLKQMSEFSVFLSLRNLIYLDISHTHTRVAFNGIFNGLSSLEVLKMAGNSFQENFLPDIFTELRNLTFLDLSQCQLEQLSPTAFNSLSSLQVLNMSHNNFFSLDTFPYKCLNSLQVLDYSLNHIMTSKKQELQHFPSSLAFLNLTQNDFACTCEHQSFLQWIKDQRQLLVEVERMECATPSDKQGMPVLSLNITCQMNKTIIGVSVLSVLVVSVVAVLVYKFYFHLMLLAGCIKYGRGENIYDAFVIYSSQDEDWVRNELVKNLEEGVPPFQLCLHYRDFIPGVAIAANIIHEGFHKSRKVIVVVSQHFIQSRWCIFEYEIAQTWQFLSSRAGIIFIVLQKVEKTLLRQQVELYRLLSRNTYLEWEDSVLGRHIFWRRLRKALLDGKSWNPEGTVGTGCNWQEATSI
human TLR4 (MD2-CD14) expressed on HEK293 cells (human), sequence (Q9Y6Y9 19-160 limits assumed, chain 2 of 3, further chain): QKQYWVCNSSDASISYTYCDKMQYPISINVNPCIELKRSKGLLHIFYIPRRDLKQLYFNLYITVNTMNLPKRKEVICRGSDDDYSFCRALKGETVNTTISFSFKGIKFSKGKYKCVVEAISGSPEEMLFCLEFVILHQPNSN
human TLR4 (MD2-CD14) expressed on HEK293 cells (human), sequence (P08571 20-345 limits assumed, chain 3 of 3, further chain): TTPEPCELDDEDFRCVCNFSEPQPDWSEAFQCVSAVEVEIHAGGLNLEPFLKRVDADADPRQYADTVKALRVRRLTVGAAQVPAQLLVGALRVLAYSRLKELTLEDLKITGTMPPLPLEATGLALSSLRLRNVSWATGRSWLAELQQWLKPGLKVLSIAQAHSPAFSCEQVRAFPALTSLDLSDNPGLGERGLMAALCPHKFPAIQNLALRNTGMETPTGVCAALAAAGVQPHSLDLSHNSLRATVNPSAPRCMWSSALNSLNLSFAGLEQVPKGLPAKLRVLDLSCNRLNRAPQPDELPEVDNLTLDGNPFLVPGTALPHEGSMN

[7] = target: human TLR2 expressed on HEK293 cells (human) (UniProt O60603)
human TLR2 expressed on HEK293 cells (human), sequence (O60603 21-784): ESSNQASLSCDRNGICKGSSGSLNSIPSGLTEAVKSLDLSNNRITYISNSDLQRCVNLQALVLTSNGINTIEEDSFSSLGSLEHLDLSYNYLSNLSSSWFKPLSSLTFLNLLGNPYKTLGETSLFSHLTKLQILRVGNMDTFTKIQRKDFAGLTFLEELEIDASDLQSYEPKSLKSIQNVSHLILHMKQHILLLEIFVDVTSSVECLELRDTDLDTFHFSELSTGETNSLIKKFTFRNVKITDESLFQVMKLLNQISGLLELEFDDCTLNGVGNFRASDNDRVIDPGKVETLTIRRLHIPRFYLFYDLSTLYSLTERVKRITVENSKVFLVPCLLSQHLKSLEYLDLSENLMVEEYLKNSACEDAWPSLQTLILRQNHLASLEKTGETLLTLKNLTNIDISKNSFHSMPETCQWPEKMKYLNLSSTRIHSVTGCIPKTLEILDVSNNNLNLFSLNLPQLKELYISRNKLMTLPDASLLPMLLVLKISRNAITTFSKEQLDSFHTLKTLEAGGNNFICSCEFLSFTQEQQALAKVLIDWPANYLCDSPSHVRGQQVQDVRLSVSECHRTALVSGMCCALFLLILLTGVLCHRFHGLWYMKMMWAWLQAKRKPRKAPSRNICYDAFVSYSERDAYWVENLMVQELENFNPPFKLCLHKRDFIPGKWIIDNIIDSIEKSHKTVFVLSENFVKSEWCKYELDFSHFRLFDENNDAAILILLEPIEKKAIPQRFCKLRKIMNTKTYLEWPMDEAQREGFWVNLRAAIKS

## wild type YscF (from UniProt O68691 1-87)
[1]
  SEAP reporter expression in HEK293 cells, screening 1: 0.075
  SEAP reporter expression in HEK293 cells, screening 2: 0.074
[2]
  SEAP reporter expression in HEK293 cells, screening 1: 0.1
  SEAP reporter expression in HEK293 cells, screening 2: 0.093
[3]
  SEAP reporter expression in HEK293 cells, screening 1: 0.095
  SEAP reporter expression in HEK293 cells, screening 2: 0.094
[4]
  SEAP reporter expression in HEK293 cells, screening 1: 0.136
  SEAP reporter expression in HEK293 cells, screening 2: 0.139
[5]
  SEAP reporter expression in HEK293 cells, screening 1: 0.096
  SEAP reporter expression in HEK293 cells, screening 2: 0.095
[6]
  SEAP reporter expression in HEK293 cells, screening 1: 0.98
  SEAP reporter expression in HEK293 cells, screening 2: 0.861
[7]
  SEAP reporter expression in HEK293 cells, screening 1: 0.283
  SEAP reporter expression in HEK293 cells, screening 2: 0.272
